# Data taken from the DeepSol protein solubility set.
# Assay: soluble on expression in E. coli; label from the status in PepcDB or PDB records
row,Sequence,soluble on expression in E. coli
1,MKYFFETRLGETRYRLADGSLLCKDVPIGRTGKQLYGADDLPKLKPDKFVEIVVTRSPEQVFHPATLASFEGMSITILHPEDENGNVRLVNPENWKVLAVGHLQNVRRGTGEQSDLMLADLIVKDESAIQLIEDGLREVSCGYDAEYEQTEPGKAEQVDITGNHVALVPKGRAGNRCAIGDRDTMANQKKNWWNRMRAAIKTGDADTMNELVESAPASVTGDEGDLPQGVNLNINLSPQQPLPDKAPEMGGDPTGDSDDDLKTLLKALLAKLERNATGDNDNKPDDNPTGDGEDDEEETTITGDSAWRAEVIVPGIDLSRKMKPTAFKREVLASADKTLVRQIVGDADIRKLPKQSVDMAFNAVSEVAKGRNTRATTGDAQRLNMGMTSIASLNKQNAEFWANRKG,not soluble
2,MKYMVVSSPIQEVLRLHKYIEISTTTITVKITNKMSSPVIGITFGNTSSSIAYINPKNDVDVIANPDGERAIPSALSYVGEDEYHGGQALQQLIRNPKNTIINFRDFIGLPFDKCDVSKCANGAPAVEVDGKVGFVISRGEGKEEKLTVDEVVSRHLNRLKLAAEDYIGSAVKEAVLTVPTNFSEEQKTALKASAAKIGLQIVQFINEPSAALLAHAEQFPFEKDVNVVVADFGGIRSDAAAIAVRNGIFTILATAHDLSLGGDNLDTELVEYFASEFQKKYQANPRKNARSLAKLKANSSITKKTLSNATSATISIDSLADGFDYHASINRMRYELVANKVFAQFSSFVDSVIAKAELDPLDIDAVLLTGGVSFTPKLTTNLEYTLPESVEILGPQNKNASNNPNELAASGAALQARLISDYDADELAEALQPVIVNTPHLKKPIGLIGAKGEFHPVLLAETSFPVQKKLTLKQAKGDFLIGVYEGDHHIEEKTLEPIPKEENAEEDDESEWSDDEPEVVREKLYTLGTKLMELGIK,not soluble
3,MKYNATKAISIAPPTIPTVNPTINEVFSFELLELELEEEEDKLLSCESDCFAQYVDGHLSHVNEVITQYSPEAQTGHDAVESQTTHPSLPLVAEVEEVAVLDKDELAEALEELDIFCLIFRKRT,soluble
4,MKYRITTWLAAALMLSSLHATAASLSDIQVSNGDQQARITLSFVGEPEYSFTPQGKRLVALDIKQTGVLQGLPLQFSGSNLVKSIRAGTPQDTQTLRLLVDLTEDGKTRAVKQQNGANYTVVFTINAEAPPPPVVVKRADPPPVMPSRTTTPGRNPFSSSGHERQTVMTSSQPAMTNNQTVTRPAARTVSADDKVIIAIDAGHGGQDPGAIGPNGTKEKNVTIAIARKLRALLNADPQFKPVLTRDGDYFISVMGRSEVARKQNANFLVSIHADAAPNRDATGASVWVLSNRRANSEMAGWLEQHEKQSELLGGAGDVLANSQADPYLSQAVLDLQFGHSQRVGYDVATNVLSQLQRIGNLHKRRPEHASLGVLRSPDIPSILVETGFISNNGEERLLGSDDYQEQIAEAIYNGLRNYFMQHPLQSAPRGEAAQTASAAAPGGMLIN,not soluble
5,MKYSSFLKQAEENLVPIFSEIDAKVKENLYKVIEAFRHHRVGVQHFAGVSGYGHDDLGRDTLDGVFAQVMGAESAAVRVQFVSGTHAIACALYGILRPGDELLSAVGSPYDTLEEVIGLRGSCQGSLADFNISYRQLPLTAAGTVDWQGLETAVRPETRLVLIQRSCGYSWRPSLAIADIARIIEIVKAQNPRTLCFVDNCYGEFIETVEPTAIGVDLMAGSLIKNPGGTIVTAGGYLAGKEEWVEAGAYRLTAPGIGLEHHHHHH,not soluble
6,MLAARGFFKSTRISNRFFAKKSVKNLTNDDVDVLTNPSDEYVDSFMKYHGNGRAVFKREDLAQWRDSFPDYKFKVISLKGAPRVIATAHLCTFRPIDPSINKSIMFMGFGWIDPGFRSPGTAKLQNDMCRVEMDREDDNIVSQINQPAKNFWHKLSKRKEFLDLGHKAGDVGYKTFYSAHDVVLPENLDLSGITVKNAREVPKRDIINYDQTIHPYHREKYIISHMYDRDGFGKVAYDEEGNVIGIGQAVIYENRKDCNLGPIYAENTRVAQAMFAEILKDIKASEKTVVSFEVRSGQLNKDSFCWLTPFLTHKPTRSHVCNLVYTDCVPENIDFSKVYSPTHAQLFMV,not soluble
7,MLALSRGRYLARPAAGLEDLRRAQELRWLAFHARRAGSGASGLDADRFDGACSHMLIEEAESGALVGCFRFLTFASGREIGRSYSAQFYELSALEGFAGPMVEMGRFCIHPDRRDPDILRVAWGALTQHVDRAGIEMLFGCSSFHGTEPEAYLDTFAMLKERHLAPPRWLPRVKAASVYRFAQRLARREPDARRAMLQMPPLLRTYLMMGGWVSDHAVVDREMDTLHVFTGLEIGAIPARRARALRAVAG,not soluble
8,MLANFSQKAQETLVGELEELVSTTNLKGVITYCNDAFCRVAEYTHEELVGQNHNIVRHSDMPKAAFGDMWARLKEGKAWRGMVKNSTKSGGYYWVDAYVTPIYEKNQVVGYQSVRVKPKREWVDIAAKAYKGMLAAEKAGRTWSLKINETVRYAILLGALTAPAVAYALSVEGPLAWLASALPASVLALLFRQELIDTPQQLKKLQKQYDSVSRLIYSGNSAFSIADFHIKMLSARIRTVLGRMTDSALPLQNCAEELSQTTSEVSAALNQQNSDIRRVRDATQEVESSANSVSSSTNDAHMLIDDTLKSCMMAKETIDQTHTNLAQLSLQA,not soluble
9,MLARSDRLSVVAVVEGTRKQPDPATFIGKGKAEEISQILAQTHAAMVIFNHELSPVQQRNLSMVLACRIIDRTSLILEHHHHHH,not soluble
10,MLAVGIVGLPNVGKSTLFNALTRANALAANYPFATIDKNVGVVPLEDERLYALQRTFAKGERVPPVVPTHVEFVDIAGLVKGAHKGEGLGNQFLAHIREVAAIAHVLRCFPDPDVVHVMGRVDPLEDAEVVETELLLADLATLERRLERLRKEARADRERLPLLEAAEGLYVHLQEGKPARTFPPSEAVARFLKETPLLTAKPVIYVANVAEEDLPDGRGNPQVEAVRRKALEEGAEVVVVSARLEAELAELSGEEARELLAAYGLQESGLQRLARAGYRALDLLTFFTAGEKEVRAWTVRRGTKAPRAAGEIHSDMERGFIRAEVIPWDKLVEAGGWARAKERGWVRLEGKDYEVQDGDVIYVLFNA,soluble
11,MLDANKLQQAVDQAYTQFHSLNGGQNADYIPFLANVPGQLAAVAIVTCDGNVYSAGDSDYRFALESISKVCTLALALEDVGPQAVQDKIGADPTGLPFNSVIALELHGGKPLSPLVNAGAIATTSLINAENVEQRWQRILHIQQQLAGEQVALSDEVNQSEQTTNFHNRAIAWLLYSAGYLYCDAMEACDVYTRQCSTLLNTIELATLGATLAAGGVNPLTHKRVLQADNVPYILAEMMMEGLYGRSGDWAYRVGLPGKSGVGGGILAVVPGVMGIAAFSPPLDEDGNSVRGQKMVASVAKQLGYNVFKG,soluble
12,MLDDCEASGFINDKRYAELLVRSNIARGHGPIRIRQAIAQKGLTKDCIEAALIATDYDWFELAKAKAKAKAIKKYGVPKVTEVKGSQSRELIAKEKAKRVRFLLSQGFSYEQVIYALDYDPLEDNDD,not soluble
13,MLDDVLALIREHDRFFITTHLGPDGDAVGSQLALGRFLEKMGKSVAMVNADEVDYNLDWMPGAGDIAVFDGSLGQHEALAEAEVAFVLDTNDEERIGKVGSLVRDATATTVLVDHHLEPEHWFDVFFVREEAAATGELVYEIIDGLAPDLIDEGIATALYTAIMTDTGSFRYSSVTPALHRSVADILERGGIGPAPIHETIYDRKSMPGLRLLGRMLNRIRLRYNGQLGYSVVTQRMVEDTGASWDDKQGFVNYVLSIEDVKTALLFSETDDGAKISFRSEADVRVDQWARHFGGGGHRNAAGAYVKRPTFEKTIETVIDAASDYIAFDARHAPDDDLSPEDQSYLETLLDDPSDSPLEHHHHHH,not soluble
14,MLDHNRLEEFIEQIRLTPAIWKNREFDISREHMNEIWAHFGHTFDISPKEAEMQWEYLIRLHRFMNRNASLEQFRIEVPSLEDDFTPADTLVAESLAIFLKPTLDELLLISKPSETSV,not soluble
15,MLDINLFREEKGNNPEIIRESQRRRFASVEIVDEIIKLDKEWRQRQFEVDSFRKEFNKLNKQVAQLKIKKEDASEIIQQTEKNKQDSTAKEAEVREAYAALKAKLEQVGNLVHDSVPVDKDEANNLVIKLWGEKRFSTPGLKLKNHVDLVELLGIADTKRGAEIAGARGFFLKGDGLMLNQALINFGLTFLKKRGFTGLQPPFFMRKDVMAKCAQLAQFDEELYKVTGEGDDKYLIATAEQPLCAYHIDEWIHPTELPLRYAGYSSCFRKEAGSHGRDTLGIFRVHQFEKIEQFCITGPNENASWEMLDEMMKNSEDFYQALKLPYQIVSIVSGALNDAAAKKYDLEAWFPSSETFRELVSCSNCTDYQARRLEIRYGQKKSNEQTKQYVHMLNSTLTATERTICCILENYQREDGVDIPEVLQPFMGGETFLPFKAKPVVADTKGKKSKA,soluble
16,MLDKIIEIIMTILPFLGNRKKRKAMAQDVKEFSELVKDQYTFLMEQLEKVLKDYFDLSARVKEMHTEIFSLREQLAQAATLQCVNKECLQRTQSEASISEA,not soluble
17,MLDLHLTMSNSMNYMKAATAYINLEALQHNLQRVKQQAPESKIMAVVKANGYGHGLRHIARHALGADAFGVARIEEALQLRASGVVKPILLLEGFYSPGDLPVLVTNNIQTVVHCEEQLQALEQAQLETPVMVWLKVDSGMHRLGVRPEQYQDFVARLHQCENVAKPLRYMSHFGCADELDKSTTVEQTELFLSLTQGCQGERSLAASAGLLAWPQSQLEWVRPGIIMYGVSPFVEKSAVQLGYQPVMTLKSHLIAVREVKAGESVGYGGTWTSQRDTKIGVIAIGYGDGYPRTAPNGTPVVVNGRRVPIAGRVSMDMLTVDLGPDACDRVGDEAMLWGNELPVEEVAAHIGTIGYELVTKLTSRVEMSYYGAGV,not soluble
18,MLDLIDSAKESVWIVSPYFVPDEEALAVIRRVAMSGVDVRVIIPGKGDRGISFHGSNAYVKTMIEAGAKMYAYADDSFVHAKAMLVDGTRAAIGTANFDVRSFRLNHELMVFLYDESEAMLHLKRDFKKDFEDSRLFTMKDMENKPLLTRIKEVLSSLLSPIL,not soluble
19,MLDRILSIRKSRANRLRESMAKINSQIKEVDGKLDDCEQSIKESIASKQAYCASLVNLDKVSLYKYQIKNNAFDEQKQRLYEKKSSLSKEKRSLLDSQKRTKENLQHVNKSVEKLSFAIKEHYFD,not soluble
20,MLDRIRGQLEQLSSAERKVADLVLEQPYTVIQAAVAEIARNAGVSQPTVIRFCRTVGCSGLPDFKLKLAGSLVTGVPYVHSSVRPEDPTSEIVAKVFDNTVSALLKCRNDVN,not soluble
21,MLDTNMKTQLRAYLEKLTKPVELIATLDDSAKSAEIKELLAEIAELSDKVTFKEDNTLPVRKPSFLITNPGSQQGPRFAGSPLGHEFTSLVLALLWTGGHPSKEAQSLLEQIRDIDGDFEFETYYSLSCHNCPDVVQALNLMAVLNPRIKHTAIDGGTFQNEITERNVMGVPAVFVNGKEFGQGRMTLTEIVAKVDTGAEKRAAEALNKRDAYDVLIVGSGPAGAAAAVYSARKGIRTGLMGERFGGQVLDTVDIENYISVPKTEGQKLAGALKAHVSDYDVDVIDSQSASKLVPAATEGGLHQIETASGAVLKARSIIIATGAKWRNMNVPGEDQYRTKGVTYCPHCDGPLFKGKRVAVIGGGNSGVEAAIDLAGIVEHVTLLEFAPEMKADQVLQDKVRSLKNVDIILNAQTTEVKGDGSKVVGLEYRDRVSGDIHSVALAGIFVQIGLLPNTHWLEGALERNRMGEIIIDAKCETSVKGVFAAGDCTTVPYKQIIIATGEGAKASLSAFDYLIRTKIA,soluble
22,MLEAEVVALKDLIEVAGAVVSTLDLDTVLRHILTSAMRFAETPAGSIALYDGYRNDLTLHAHEGLTPEFVKTERWSVQPGGLTEQVLTRGEILFVNDTADTSFFHNPTALNEGIRSLICVPLMMQNRIVGILYLDDFVPRDFDKERMKLLSVLASFAAMAIDNAQLHARTR,not soluble
